Measurements taken from the DeepSol protein solubility set.

Experiment: soluble on expression in E. coli; label from the status in PepcDB or PDB records

Row | Sequence | soluble on expression in E. coli
1 | MFCTSEAAVDMDSGRGDIRRLKDGEILKYTSGIFSSKWKKMYAVLFSDSRLVWFENRGDRKPKGSVLLKDVIPYICVGLMTDRMPVKRPNVPEGNSVHHLVGIGMNPKADPCHWILFSSDSDIESWFTEITKTLPKPANPPPNAPQQGPGAQPPQQQNNGGYVPPTVYPSAPPPVQPGYNPRPASGQSYPSGPQVPPAYGQYPQPGYPQPAGVPTSSHTTVIVRDGGYGGGGYGGYGGGGGGFGSTGLGFGSGILAGSLLGYGLGSMWGGHHSYGGWGGGYGGGGYGMAGGYYSDNDTTVTNNYYNYGDNDNNGGNNHSSSSNAITDAPGNAGDQSQQQSDNNYGNANQDSYDQGNDYGNDYGNAGYDSGDFGGGDYGGGGYDSGDFGGGDFGGGDFGGGDFGGGDY | not soluble
2 | MKSIYYLSADDLFQMNTFLIQTYSPAEQIGIKDRNALEMASNQPAQFVFDVDLYPTIEEKAAILMINIATKHCFYNANKRTAVMATDLFLQLNGYDFQLDTQEGVDLLVFIATYRSDFDQLKNDVSKVIRAKLNHTSSHLEHHHHHH | soluble
3 | MTTVSKPDESSFDVRTLSMKTCGSRLCVGFCYCSGVVKFRKSESVGTVDIPFPSLGACPSLTLSMSPNMNFSSRMALAPTSPMKRSKSVPNILSGEYPNSVCVVANSIDENGDAGVDVTDCASTKPLVLGKDNYQDNYWDSQETNHRNADMKTPKKKVGKISKFVNICVSELKKFKNPNSGVTSIDGVERLKKEIAPLPSSPLKLTSTSTIEFQSTVTSSSPIMRSRETTSTIQRSKIISSTTKVMSDMLMDKEGKDSEISENSINCSTNLAVNKMGDVPSLSQFEDADGLQKKLTEPVELPAKSQEVYQYDVSASPAKEDLKWSTLKKIDLIVPSFRSKKRGLVAHLKSSPISKISYDGSPSKQVGVLDGEITDDGRIDSGPAKAIIPTSTENIIMPKELNISDIGEKAEVSRGLRKRHLEDSSTPSSRGPSTPAKLITDEDATNKKKRVLGKNMVDNKASSPNKEHILPIDQLNNSSAMGISSENTAPMELKATGNDPVSDGGGYKFLVTAETGRKFDEFRAKRQRLRESWMENKSPTSNKNVQTTAVTSGFQSNEQAPENLPATMECLNKEAATTPMNDNRALLTEVGPEAALAEPKLGKPLLPVENVLQYSKSPSKTAVTNKPTKTVLKANFNAPIGKINSDISFFTPKKVFGKSEYQYGPSMGKLIQMMGTGTPKKVLPEFGSSSKTALFSPRKEEHCAGAPRGSWKIAKMRVRTKLSNFYPSSRSKNSQQIRGKWLGQNIVQFSGHHSMIAQSANDKHGANLMEISAQPSTSTTAQNI | not soluble
4 | MSLTEFPGIVKEYEAITRYCGFNSIEAGKTMGLSPYGEPNPEIPPMFVNGFGNRNLFKPNYPNGAYVIEDRYKIIRDDYISHNGEVGTGEYTQVQKDLAYAIQKESEDQMCALIQKAHEMTGEKNIVICGGYGLNCVANYKFKQRFPNLNIYVEPISHDGGTSMGGAYHVYYNDYVKTGKESRKVEPPKTIYYGPQYDPDTYLNYIHEYPSAKVTDASYDSVARLIREGNIVTIFQGRSEAGPRALGNRSILFDPTIKDGKDIVNSVKHREFFRPFACSILADKVHDWFDLAGMDDSPSMMYAVDALPGVAEKIPSVIHVDNTCRIQTVTKEQNEHYYNLISAFEKLSNTPILFNTSFNLGGDPLVEDIDDALDTLSTSDINYMYLPEIQKLVELKTREMQDTRQQPINEGHHHHHH | soluble
5 | MGSDKIHHHHHHMKVLEGIRVLDFGRFIAGPFCAALLADFGADVIRIDRVGGSEDRFVAPVTSEGEGAFFLQVNRNKRSITLDLDSEEGQAVVRKLLLNTDVVVANMPPRTIAALGLDYESLRKVKPDIILTASSAFGADPAVRDRVGFDGVGQAMSGAVHLTGLPDHPMKSMVPVVDFSTALCCALGTMMALYERKSSGQGQEVGASLLHTALTLSSGSLIEEALRGLNRQATVNRSPTYGPSDIFRVKDGWIIAQVIGPAMFKRWTRMVGRPELLDDPRFADDAMRGEHGEVLSDIMSDWCAGRTREEALAILEGARIPGGPVNTPRQALEDEVVRASGAFHGVDYPGAAAQVPLVATPVSLSRTAPAIARRPPTAGEHTEEVLRDAGYAPGEIVALRERGVI | not soluble
6 | MSLSAFLPSLDTPVALLDMPRMQRNIQRMQQRMNELGVRLRPHVKTSKSLPVIQAQMAAGARGVTVSTLKEAEHCFAEGISDVFYAVAIAPGKLDQALKLRRIGCRLSILTDSVVAAQAIVAFGQQHDEQFQVWIEIDCDGHRSGLTVEDNALIEVARTLVEGGMQLRGVMTHAGSSYDLDTPEALQALAEQERLLCVSAAERIRQAGLPCPEVSIGSTPTALSAQGLAGVTEVRAGVYVFFDLVMHNIGVCGADEGHHHHHH | not soluble
7 | MGSDKIHHHHHHMINSGNGTDYESMRFDRRGQAEAFDAIGDRYDEAFPHKEGQVSVGEWLIGSLPPRSRVLDLGCGTGMPTARQLTDAGFDVVGVDLSGGMVELARAYVPGATFHQLDVADLRPGGSRDLGRFDAVAAFFSLLMLPRPEIPLALLTVRHLLVPGGLFALAMVEADVDDFSIPFVGHTIRVSGYLREDLHTVIETAGFEIVKEFSYTYAPSVADVPPEEQVFLCCRRRG | not soluble
8 | TIVYDKDGDKAGELSSTDATFVSIDKISKNLQNAVVSIEDRRFYEHKGFDLKGIARAGVNLITNGGISGGGSTITQQLAKNALLTQEQTFTRKAKEIFMAREIEKTYSKDEIMEMYLNRSYFGNGEWGVENASLKYFGKPAADLNIPEAATIAGLLQAPSAYDPYQHI | not soluble
9 | MTSPDEHSPEKKDSENEVVPAGPKQKAKCLEKETKSPPKPSDLSKAERKEKNNKTARRDVKSSRGNVKTMKPSVVKVEERSSRSKKSIREGKLKNFSLPKDEPEITALQLDAELTKSARLMEEYKIALEQIITTLVSMMRRGNGTVDMENIVSDKGQTAAEKLNKEVQLTQNYWKTDTKLQPAMNDAIAKNTVVLAAAERNLQTQGPQHLKRVKKFLYGQYPKYVDMKRDLLKIVKQQKPEAQSVRDESAQAISKFIKEKYVNAKIYASRRNSKCFRRVELFPSYIRFYLASNR | soluble
10 | MDHGRRRLHSGSTPRGGERPAKRERISVEEQQSQEIRNLKRKLEEARQREDKYIKNEQLHHTAMRSKQQRIERMEKSMESTNRKMYATQCRLNDMENIYDDLEMESKIMADFIDHYYDSRNITEEDRDELQDKLDEEAANYRDLEDRIKEVRHRDRYMKTVETERKRTTFYRKKMLELAEQLQFEQQEVTGETPLWKLCEICAHQFSHSDEYVPRVLVCGHTLCTSCIEKLDVGDGIRCPFCRTWTNMKRIEALPKNFQILQM | not soluble
11 | MSLSEDKMDLYLQQGMYGPLETKPDERHLFLGSLRERVVLALTKGQVLRSKPYKEAEHELKNSHNVTLLINGELQYQSYSSYIQMASRYGVPFKIVSDLQFHTPLGIVIAADIAVNRELIYIQDDIYNRSVLKSEGHHHHHH | soluble
12 | MYPADFASQLNVLTLAEMKKTIHDILDFRDEDIWMLFGTLPVFPCLKDDEDQKLLSRLRNANNVTTRNDPDGRSRLNVNVFTGNVIVTDFGDETGTISNIQKDKLTDVFDKWLSSDLAKSLNCHCSEFSCLGPNVLVKNMYYPNMDFKDNERHMHKQPQIIQF | not soluble
13 | MIGDFWKESNGLATANDMDKNLAYMYTMKKKARGQLLFTKEKLAEYGSKVGLFPGVKDWFRRIRQYGADREVIIEHYIISSGLKEMIEGTSIAKDFKEIYATSFYFDDDGVAVWPAQVVNYTNKTQFLFRISKGVLNVNDEAVNDSFAPDEIRVPFHNMIYIGDSDTDIPCMKLVNSHGGYSIGVFNPKERNEEKAKKRVYKMIRDNRIGYF | not soluble
14 | MAHHHHHHMKNKNKYDYLLKLLLVGDSSVGKSSILCRYSDNQFEEKVLSTIGIDFKVKYLKIDNKTIKVGIWDTAGQERFRTLTSAYYRNAHAIILVYDCTVRESFENLDVWINEIDKYSTNKNAIKMLVANKIDKPNHEVTKDEGKNFAFENNMLFCETSAKNDINITYCFEELIQQILNNPSLLELSIVTKNLKLGKKEESRSNCAC | soluble
15 | MIDLLQADGNALPSAVKLAYSPASKTFESYRVMTQVHTNDATKKVIVKLADTPQLTDVLNSTVQMPISVSWGGQVLSTTAKEFEAAALGYSASGVNGVSSSQELVISAAPKTAGTAPTAGNYSGVVSLVMTLGSDNKQVEKNITVTASVDPVIDLLQADGNALPSAVKLAYSPASKTFESYRVMTQVHTNDATKKVIVKLADTPQLTDVLNSTVQMPISVSWGGQVLSTTAKEFEAAALGYSASGVNGVSSSQELVISAAPKTAGTAPTAGNYSGVVSLVMTLGSDNKQVEKNITVTASVDPVIDLLQADGNALPSAVKLAYSPASKTFESYRVMTQVHTNDATKKVIVKLADTPQLTDVLNSTVQMPISVSWGGQVLSTTAKEFEAAALGYSASGVNGVSSSQELVISAAPKTAGTAPTAGNYSGVVSLVMTLGSDNKQVEKNITVTASVDPVILEHHHHHH | soluble
16 | MGAPALPQIWQLYLKNYRIATFKNWPFLEDCACTPERMAEAGFIHCPTENEPDLAQCFFCFKELEGWEPDDNPIEEHRKHSPGCAFLTVKKQMEELTVSEFLKLDRQRAKNKIAKETNNKQKEFEETAKTTRQSIEQLAA | soluble
17 | MGSDKIHHHHHHMRIVHISDLHFGEELIREKVEKAVRQINEIEPDLLVITGDLSCWGIHSEMRDAYETLLDLKPDYIAVPGNHDARNIGYEFFQLYFGETKKYWKNDVVSLIAADSTQPDLDDGYIGKEQRDWIVSKIRKDRFNILALHHHIAPIPKTGRERNVLIDAGEMVELLIANGISAVLAGHRHMPYSLRLMRTHVIHAGTLGSFKVLGMPDHNYNVIEIKDNTLTLKLRFVDYGEVEIGRYTINPETPESISVYQRIAKPKKVLFLSRSNDCRTKIAEAIFNHISPNNMLAVSAGIEPAQDLDLRAVATMRELGLKINGKPRKFSEDMVSDFDAIVEFDELGVGEFWDVKKPSSAEEYREVRSEIWRRVEELVKRLLA | not soluble
18 | MTNVQEQDKRKGGRPPTGRVRKLSKSVTVKFSKPSYEALKLRARKANRKLAEYIRESALNGEVVSGHNAETVAIAKNLIGMANNLNQLANLSHQRGFHETHVYVVDLLRRLKEILDEYRQASYKPKPSSMGRKEDTT | not soluble
19 | TVPGATTTSSAATETMENVKKCKNFLSTLIKLASSGKQSTETAANVKELVQNLLDGKIEAEDFTSRLYRELNSSPQPYLVPFLKRSLPALRQLTPDSAAFIQQSQQQPPPPTSQ | soluble
20 | NIYDSANELSRGLRGLPEYKAVKAAKDAIAADAEASKIFTDYLAFQEEIQKLAQTGQMPDASFQAKMEGFGKQIQGNSLLSEFFTKQQQLAIYLSDIEKIVFEPVSELLK | not soluble
21 | MGSDKIHHHHHHMEKLYLKIGNQDEFDICEKVQGLHFLSDDSTPVTTNQFLEISGADGSQFQYATFGKYQVVANFFLEFKSWEDYKLAKHQINRIFSTKKLIRMRTNVESAIVRYVYPNFPEIKPISDGANSSTFSVNFDNPSGYRYSIDRSDELSKVQYGMYLLDNIYPEYRFTDKSFRVYNPSDIAIDPYLGKHDLKIISKFSGNSLKITNTTNGTSWSYNKSSNGSETVLLDGIVTTVNGNPATVNTDYGHIVLNTGWNDIVVSGTNSNDITFSFPFIYI | not soluble
22 | MSLNEELIKTGDFAKMCAVTKKALYVYEAKGLLKPAVVKDNGYRYYRLEQVDQVATIRLLEKLGSSLQEVGDFFALKDLNERQKYLGKQQEAVEREMAELGKIKSSLEFFDQRISDLKQTGLKKWRLRLARKNTWKSVLLGMVFREGHHHHHH | not soluble
